Patent US20030166872A1 (APPLIED MOLECULAR EVOLUTION, published 2003)
Substitutions are numbered along the chain they refer to.

Key:
integrin αVβ3 [1] = biological target: T1, integrin αVβ3 (human, UniProt P06756 31-1048; P05106 27-788); assay: ELISA screen of the position 49 library (target printed αvβ5 here, αvβ3 in paragraph 179)
T1 construct: mature; biotinylated in capture lift and capture ELISA; also on M21 melanoma cells in some assays; also called vitronectin receptor; αVβ3 receptor

integrin αVβ3 [2] = biological target: T1, integrin αVβ3; assay: SPR (BIAcore)
integrin αVβ3 [3] = biological target: T1, integrin αVβ3; assay: inhibition of binding of 0.1 µg/ml biotinylated fibrinogen to immobilized αVβ3, 3 h at 37 °C, detection with NeutrAvidin alkaline phosphatase
integrin αVβ5 = biological target: T2, integrin αVβ5 (human, UniProt P06756 31-1048; P18084 24-799); assay: ELISA on coated integrin, detection with goat anti-human IgG alkaline phosphatase
T2 construct: mature
T2 sequence (P06756 31-1048, chain 1 of 2): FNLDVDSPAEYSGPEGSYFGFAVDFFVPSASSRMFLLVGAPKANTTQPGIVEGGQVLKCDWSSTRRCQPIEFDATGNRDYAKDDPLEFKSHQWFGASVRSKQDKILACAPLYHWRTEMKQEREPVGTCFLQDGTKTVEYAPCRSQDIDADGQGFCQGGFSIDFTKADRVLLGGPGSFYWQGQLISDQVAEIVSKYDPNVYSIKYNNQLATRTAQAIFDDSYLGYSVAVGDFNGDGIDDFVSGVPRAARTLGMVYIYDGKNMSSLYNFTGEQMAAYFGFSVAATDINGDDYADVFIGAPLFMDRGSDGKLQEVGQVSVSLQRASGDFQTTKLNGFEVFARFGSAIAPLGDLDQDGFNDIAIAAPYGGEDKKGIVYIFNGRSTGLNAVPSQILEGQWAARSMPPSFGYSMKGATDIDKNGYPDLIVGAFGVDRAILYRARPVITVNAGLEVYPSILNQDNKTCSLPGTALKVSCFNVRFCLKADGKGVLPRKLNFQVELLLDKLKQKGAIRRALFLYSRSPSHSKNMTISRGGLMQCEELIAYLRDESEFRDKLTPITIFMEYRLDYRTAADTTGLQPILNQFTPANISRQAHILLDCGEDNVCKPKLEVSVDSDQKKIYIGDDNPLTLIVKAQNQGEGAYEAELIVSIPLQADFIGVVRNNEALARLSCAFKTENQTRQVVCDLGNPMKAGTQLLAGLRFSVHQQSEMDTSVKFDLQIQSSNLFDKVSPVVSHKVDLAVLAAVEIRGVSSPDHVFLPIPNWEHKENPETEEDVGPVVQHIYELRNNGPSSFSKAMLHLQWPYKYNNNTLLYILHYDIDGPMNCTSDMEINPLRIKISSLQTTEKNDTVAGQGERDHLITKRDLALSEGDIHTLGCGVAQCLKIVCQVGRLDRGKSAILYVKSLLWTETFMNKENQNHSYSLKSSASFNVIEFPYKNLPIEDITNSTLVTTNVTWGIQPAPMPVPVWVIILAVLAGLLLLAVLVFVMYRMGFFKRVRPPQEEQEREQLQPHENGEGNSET
T2 sequence (P18084 24-799, chain 2 of 2): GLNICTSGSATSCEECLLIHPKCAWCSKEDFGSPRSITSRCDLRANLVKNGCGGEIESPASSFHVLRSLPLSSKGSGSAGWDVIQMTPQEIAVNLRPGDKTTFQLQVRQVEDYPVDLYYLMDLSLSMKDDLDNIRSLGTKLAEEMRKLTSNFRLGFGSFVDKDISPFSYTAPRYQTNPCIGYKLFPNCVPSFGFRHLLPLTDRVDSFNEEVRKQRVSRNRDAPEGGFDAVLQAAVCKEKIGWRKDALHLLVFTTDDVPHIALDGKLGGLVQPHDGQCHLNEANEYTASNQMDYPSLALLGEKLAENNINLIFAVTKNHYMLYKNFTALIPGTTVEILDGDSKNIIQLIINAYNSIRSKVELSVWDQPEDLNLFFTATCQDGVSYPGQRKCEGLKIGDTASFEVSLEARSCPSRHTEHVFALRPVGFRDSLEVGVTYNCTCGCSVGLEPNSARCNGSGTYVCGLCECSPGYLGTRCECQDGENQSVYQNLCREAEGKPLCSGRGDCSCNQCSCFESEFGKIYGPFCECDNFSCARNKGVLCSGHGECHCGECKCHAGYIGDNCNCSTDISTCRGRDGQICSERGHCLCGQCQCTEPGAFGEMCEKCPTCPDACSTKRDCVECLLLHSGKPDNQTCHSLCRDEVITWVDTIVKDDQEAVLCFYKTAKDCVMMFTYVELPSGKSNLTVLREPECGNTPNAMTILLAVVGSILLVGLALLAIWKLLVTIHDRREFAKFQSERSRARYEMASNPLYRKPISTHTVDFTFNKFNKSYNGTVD

T1 sequence (P06756 31-1048, chain 1 of 2): as the sequence (P06756 31-1048, chain 1 of 2) above
T1 sequence (P05106 27-788, chain 2 of 2): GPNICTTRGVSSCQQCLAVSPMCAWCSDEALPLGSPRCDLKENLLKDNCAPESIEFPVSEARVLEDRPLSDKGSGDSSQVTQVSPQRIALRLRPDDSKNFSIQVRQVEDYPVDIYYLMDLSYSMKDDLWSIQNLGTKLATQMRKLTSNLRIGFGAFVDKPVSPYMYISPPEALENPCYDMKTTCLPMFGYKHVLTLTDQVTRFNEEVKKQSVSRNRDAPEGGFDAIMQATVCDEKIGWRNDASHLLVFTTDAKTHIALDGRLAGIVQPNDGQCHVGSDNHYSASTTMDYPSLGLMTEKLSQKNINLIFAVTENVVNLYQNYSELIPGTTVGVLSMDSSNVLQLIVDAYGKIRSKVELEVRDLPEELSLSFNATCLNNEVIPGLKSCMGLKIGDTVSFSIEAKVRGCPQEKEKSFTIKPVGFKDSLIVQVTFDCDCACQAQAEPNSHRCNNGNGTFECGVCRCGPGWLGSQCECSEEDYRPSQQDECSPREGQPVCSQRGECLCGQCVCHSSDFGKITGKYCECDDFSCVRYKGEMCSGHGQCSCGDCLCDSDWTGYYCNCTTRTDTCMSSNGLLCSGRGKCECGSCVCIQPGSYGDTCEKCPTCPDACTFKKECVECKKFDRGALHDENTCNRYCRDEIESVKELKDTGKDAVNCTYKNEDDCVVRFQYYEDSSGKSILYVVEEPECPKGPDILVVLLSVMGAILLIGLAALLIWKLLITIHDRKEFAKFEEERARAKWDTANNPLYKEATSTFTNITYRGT

B1: LM609 grafted antibody clone with Met at position 49 of the light chain (Fab, V domains shown)
VH: QVQLVESGGGVVQPGRSLRLSCAASGFTFSSYDMSWVRQAPGKGLEWVAKVSSGGGSTYYLDTVQGRFTISRDNSKNTLYLQMNSLRAEDTAVYYCARHNYGSFAYWGQGTTVTVSS
VL: EIVLTQSPATLSLSPGERATLSCQASQSISNHLHWYQQRPGQAPRLLIMYRSQSISGIPARFSGSGSGTDFTLTISSLEPEDFAVYYCQQSGSWPHTFGGGTKVEIK
notes: From the library of 19 non-donor residues at light chain position 49
B1: binds (integrin αVβ3 [1]).

B2: LM609 grafted antibody combinatorial clone C59 (Fab, V domains shown)
VH: B1 VH with L61P, Y106D
VL: B1 VL with H32F, M49R
notes: Fab
With B2 the “fold slower dissociation rate” value (integrin αVβ3 [2]) was greater than 10 fold and the “IC50 (read off the curve)” value (integrin αVβ3 [3]) was roughly 0.06 µg/mL.

B3: Vitaxin (antibody, V domains shown)
VH: B1 VH
VL: B1 VL with M49K
notes: also called huLM609M13 1135-4; grafted LM609
B3: no binding (tested: about 2000 ng/ml) (integrin αVβ5).
